Measurements as given in patent publication US20260103686A1, “MICROBIAL STRAIN, PROTEIN, AND METHOD FOR PRODUCING GALLIC ACID USING MICROBIAL STRAIN OR PROTEIN” (UNIVERSITY OF TSUKUBA, priority 2022, published 2026).

Tested on: O=C(O)c1ccc(O)c(O)c1
Assay: purified protein, by the assay type
Details: other: PCA substrate, 200 µM NADPH, 10 µM FAD, pH 7.9, 25° C., 340 nm
Method: The cell-free extracts were subjected to a HisTrap HP column (GE healthcare) which was equilibrated with an equilibration buffer (20 mM Tris-HCl buffer (pH 7.9), 20 mM imidazole), and then fractions eluted with an eluent (20 mM Tris-HCl buffer (pH 7.9), 500 mM imidazole) were collected.
The protein concentrations of the purified enzyme liquids were measured using Bio-Rad Protein Assay Dye Reagent Concentrate (Bio-Rad, USA), and the purified enzyme liquids were diluted to 1 of mg/mL with a buffer. Thus, purified enzyme liquids protocatechuic acid 5-hydroxylases, HgPobA, HyPobA, PoPobA, HgPobA-TY and PaPobA, were prepared.
Using the purified enzyme liquids of HgPobA, HgPobA-TY, PoPobA, HyPobA and PaPobA described above, a reaction kinetic analysis was conducted.

Pseudomonas aeruginosa-derived PobA (PaPobA), p-hydroxybenzoate hydroxylase, wild type, SEQ ID NO: 28 (Pseudomonas aeruginosa PAO1)
Km: 140 µM
